This is an account of results in publication PMC11365436.

Assay [1] concerns the target strep-CsoS1A (hexameric shell protein) (Halothiobacillus neapolitanus) (UniProt P45689).
Assay [2] shares this target. Nature of the assay: native gel or EMSA; native 1% agarose protein gel (Tris-acetate-EDTA); proteins mixed in 50 mM Hepes, 150 mM NaCl, 30 min at room temperature; 2.5 μg CsoS1A or BSA, 8.4 μg CsoS2 or 3.5 μg MR variant (0.09 nmol); run 70 min at 60 V in 25 mM Tris, 200 mM glycine, pH 7.5; stained, quantified in FIJI.

UniProt P45689, sequence (P45689 whole entry): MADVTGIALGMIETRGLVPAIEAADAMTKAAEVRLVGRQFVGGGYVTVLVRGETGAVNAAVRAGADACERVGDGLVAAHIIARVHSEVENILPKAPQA

In assay [1], “6xHis-CsoS2B (full-length CsoS2, long form) (from UniProt O85041-1 1-869) (natural protein)” displayed a turbidity with 9 μM CsoS1A, compared to wtMR (fold against wtMR) of 5. In addition, in assay [2], the percent of shell bound and shifted from its control position was greater than 90%.
Consider “6xHis-wtMR-strep (WT middle region of CsoS2, repeats 1 to 6) (domain or fragment)”, for which, in assay [2], the percent less mobility shift of shell than with full-length CsoS2 worked out at 25%.
